What was measured:
[1] = molecular target: T1, Arabidopsis COP1^349–675 WD40 domain (Arabidopsis, UniProt P43254 349-675); experiment: grating-coupled interferometry (GCI); COP1 WD40 amine-coupled (2,000 pg/mm^2), surface passivated with BSA; analyte full-length CRY2 activated by light (highest 14 μM) or CRY2^NC80 (highest 450 μM); 150 mM NaCl, 20 mM HEPES 7.4, 2 mM BME; 25°C; heterogenous ligand model; settings: both partners purified
T1 construct: COP1 (CONSTITUTIVELY PHOTOMORPHOGENIC 1) E3 ubiquitin ligase, Arabidopsis, WD40 domain, residues 349-675; also called COP1 WD40 domain; COP1 WD40; not shown: His10, N-terminal, cleaved; Twin-Strep, N-terminal, cleaved
T1 sequence (looked up): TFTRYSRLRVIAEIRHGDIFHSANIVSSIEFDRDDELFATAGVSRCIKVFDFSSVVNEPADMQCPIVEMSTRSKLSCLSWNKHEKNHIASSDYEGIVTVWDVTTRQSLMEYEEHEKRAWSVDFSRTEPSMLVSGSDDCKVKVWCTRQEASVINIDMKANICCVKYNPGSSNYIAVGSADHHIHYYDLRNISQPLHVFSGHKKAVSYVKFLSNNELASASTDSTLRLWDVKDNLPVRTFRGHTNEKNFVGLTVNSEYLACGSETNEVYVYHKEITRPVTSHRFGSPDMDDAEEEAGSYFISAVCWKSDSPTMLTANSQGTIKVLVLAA

[2] = molecular target: T2, COP1^349–675,Lys422Ala WD40 domain (Arabidopsis, UniProt P43254 349-675, Lys422Ala); experiment: ITC; VP peptide (titrant, 500-3,000 μM) injected into COP1 WD40 in the cell at about 10-fold lower concentration; 150 mM NaCl, 20 mM HEPES 7.4, 2 mM BME; 25°C; one-site binding model; settings: both partners purified
T2 construct: COP1, Arabidopsis, WD40 domain, residues 349-675, Lys422Ala; also called COP1^Lys422Ala; not shown: His10, N-terminal, cleaved; Twin-Strep, N-terminal, cleaved
T2 sequence (looked up): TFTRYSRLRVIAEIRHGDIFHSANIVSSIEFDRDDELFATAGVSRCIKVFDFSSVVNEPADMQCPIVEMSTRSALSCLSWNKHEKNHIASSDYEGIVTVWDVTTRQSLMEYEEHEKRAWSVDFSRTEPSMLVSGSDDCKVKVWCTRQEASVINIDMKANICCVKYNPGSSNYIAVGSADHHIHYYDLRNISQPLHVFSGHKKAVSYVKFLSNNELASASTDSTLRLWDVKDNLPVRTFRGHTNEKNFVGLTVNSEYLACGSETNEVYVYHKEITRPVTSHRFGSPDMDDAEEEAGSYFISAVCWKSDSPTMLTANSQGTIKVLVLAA

[3] = molecular target: T1, Arabidopsis COP1^349–675 WD40 domain; experiment: as above; settings: both partners purified
[4] = molecular target: the molecule itself; experiment: SEC; purified recombinant chimeric UVR8 proteins alone, in the absence of UV-B
[5] = molecular target: T1, Arabidopsis COP1^349–675 WD40 domain; experiment: crystal structure; co-crystals, 5 mg/ml COP1 with 3- to 10-fold molar excess of peptide; 1.25 M sodium malonate pH 7.5; 20°C; settings: both partners purified
[6] = molecular target: T1, Arabidopsis COP1^349–675 WD40 domain; experiment: grating-coupled interferometry (GCI); COP1 WD40 amine-coupled to the chip (2,000 pg/mm^2); analyte in 1:3 dilution series from 2 μM (UVR8 forms pre-monomerized by UV-B; HY5); 150 mM NaCl, 20 mM HEPES 7.4, 2 mM BME; 25°C; 1:1 binding model; settings: both partners purified

B1: full‐length CRY2 (recombinant) (receptor, Arabidopsis, UniProt Q96524 1-612, looked up)
chain: MKMDKKTIVWFRRDLRIEDNPALAAAAHEGSVFPVFIWCPEEEGQFYPGRASRWWMKQSLAHLSQSLKALGSDLTLIKTHNTISAILDCIRVTGATKVVFNHLYDPVSLVRDHTVKEKLVERGISVQSYNGDLLYEPWEIYCEKGKPFTSFNSYWKKCLDMSIESVMLPPPWRLMPITAAAEAIWACSIEELGLENEAEKPSNALLTRAWSPGWSNADKLLNEFIEKQLIDYAKNSKKVVGNSTSLLSPYLHFGEISVRHVFQCARMKQIIWARDKNSEGEESADLFLRGIGLREYSRYICFNFPFTHEQSLLSHLRFFPWDADVDKFKAWRQGRTGYPLVDAGMRELWATGWMHNRIRVIVSSFAVKFLLLPWKWGMKYFWDTLLDADLECDILGWQYISGSIPDGHELDRLDNPALQGAKYDPEGEYIRQWLPELARLPTEWIHHPWDAPLTVLKASGVELGTNYAKPIVDIDTARELLAKAISRTREAQIMIGAAPDEIVADSFEALGANTIKEPGLCPSVSSNDQQVPSAVRYNGSKRVKPEEEEERDMKKSRGFDERELFSTAESSSSSSVFFVSQSCSLASEGKNLEGIQDSSDQITTSLGKNGCK
notes: cryptochrome 2 (CRY2), Arabidopsis blue-light photoreceptor, full length; not shown: His10, N-terminal, cleaved; Twin-Strep, N-terminal, cleaved
fold increase in binding affinity over the isolated CRY2 VP peptide [1]: ~200 fold

B2: CRY2^527–535 VP peptide (peptide, UniProt Q96524 527-535, looked up)
peptide: NDQQVPSAV
notes: also called CRY2 VP peptide; source: synthetic peptide (Peptide Specialty Labs GmbH)
fold reduction of binding against wild type COP1 [2]: ~30 fold
stoichiometry N [3]: 1.04

B3: UVR8^HY5VP chimera (recombinant) (other)
chain: MAEDMAADEVTAPPRKVLIISAGASHSVALLSGDIVCSWGRGEDGQLGHGDAEDRPSPTQLSALDGHQIVSVTCGADHTVAYSQSGMEVYSWGWGDFGRLGHGNSSDLFTPLPIKALHGIRIKQIACGDSHCLAVTMEGEVQSWGRNQNGQLGLGDTEDSLVPQKIQAFEGIRIKMVAAGAEHTAAVTEDGDLYGWGWGRYGNLGLGDRTDRLVPERVTSTGGEKMSMVACGWRHTISVSYSGALYTYGWSKYGQLGHGDLEDHLIPHKLEALSNSFISQISGGWRHTMALTSDGKLYGWGWNKFGQVGVGNNLDQCSPVQVRFPDDQKVVQVSCGWRHTLAVTERNNVFAWGRGTNGQLGIGESVDRNFPKIIEALSVDGASGQHIESSNIDPSSGKSWVSPAEEIRRVPEFTGLTDGSSKGNGGDISVPQTDVKRVRI
stoichiometry N [4]: 2

B4: UVR8^TRIB1VP chimera (recombinant) (other)
chain: MAEDMAADEVTAPPRKVLIISAGASHSVALLSGDIVCSWGRGEDGQLGHGDAEDRPSPTQLSALDGHQIVSVTCGADHTVAYSQSGMEVYSWGWGDFGRLGHGNSSDLFTPLPIKALHGIRIKQIACGDSHCLAVTMEGEVQSWGRNQNGQLGLGDTEDSLVPQKIQAFEGIRIKMVAAGAEHTAAVTEDGDLYGWGWGRYGNLGLGDRTDRLVPERVTSTGGEKMSMVACGWRHTISVSYSGALYTYGWSKYGQLGHGDLEDHLIPHKLEALSNSFISQISGGWRHTMALTSDGKLYGWGWNKFGQVGVGNNLDQCSPVQVRFPDDQKVVQVSCGWRHTLAVTERNNVFAWGRGTNGQLGIGESVDRNFPKIIEALSVDGASGQHIESSNIDPSSGKSWVSPAESDQIVPEY
stoichiometry N [4]: 2

B5: CRY2^NC80 (CRY2^486–565) (domain or fragment, Arabidopsis, UniProt Q96524 486-565, looked up)
chain: SRTREAQIMIGAAPDEIVADSFEALGANTIKEPGLCPSVSSNDQQVPSAVRYNGSKRVKPEEEEERDMKKSRGFDERELF
notes: cryptochrome 2 (CRY2), Arabidopsis, fragment of the C-terminus containing the VP motif (NC80 domain), residues 486-565; also called NC80 domain; not shown: His10, N-terminal, cleaved; Twin-Strep, N-terminal, cleaved
binding result [1]: binds

B6: STO^240–247 VP peptide (peptide, UniProt Q96288 240-247, looked up)
peptide: EHFIVPDL
notes: SALT TOLERANCE (STO/BBX24) transcription factor, residues 240-247; also called STO peptide; SALT TOLERANCE (STO/BBX24); source: synthetic peptide (Peptide Specialty Labs GmbH)
binding result [5]: binds

B7: COL3^287–294 VP peptide (peptide, UniProt Q9SK53 287-294, looked up)
peptide: GFGVVPSF
notes: COL3/BBX4 transcription factor, residues 287-294 (holds Phe288); also called COL3 VP peptide; COL3 peptide; source: synthetic peptide (Peptide Specialty Labs GmbH)
stoichiometry N [2]: 0.9
stoichiometry N [3]: 0.75

B8: UVR8^406–413 VP peptide (peptide, UniProt Q9FN03 406-413, looked up)
peptide: RYAVVPDE
notes: also called UVR8 VP peptide; UVR8 peptide; source: synthetic peptide (Peptide Specialty Labs GmbH)
fold increase in binding affinity against wild type COP1 [2]: ~10 fold
stoichiometry N [2]: 0.87
binding result [3]: binds

B9: HYH^27–34 VP peptide (peptide, UniProt Q8W191 27-34, looked up)
peptide: ELLMVPDM
notes: HYH (HY5 homolog) transcription factor, residues 27-34; also called HYH peptide; source: synthetic peptide (Peptide Specialty Labs GmbH)
binding result [5]: binds

B10: CO^366–373 VP peptide (peptide, UniProt Q39057 366-373, looked up)
peptide: GYGIVPSF
notes: CONSTANS (CO/BBX1) transcription factor, residues 366-373; also called CO VP peptide; CONSTANS; source: synthetic peptide (Peptide Specialty Labs GmbH)
fold stronger binding than to wild type COP1 [2]: ~4 fold
stoichiometry N [2]: 0.89
stoichiometry N [3]: 1.03

B11: HFR1^57–64 VP peptide (peptide, UniProt Q9FE22 57-64, looked up)
peptide: YLQIVPEI
notes: LONG HYPOCOTYL IN FAR-RED 1 (HFR1) transcription factor, residues 57-64; also called HFR1 peptide; LONG HYPOCOTYL IN FAR‐RED 1; source: synthetic peptide (Peptide Specialty Labs GmbH)
binding result [5]: binds

B12: full‐length HY5 protein (recombinant) (natural protein, Arabidopsis, UniProt O24646 1-168, looked up)
chain: MQEQATSSLAASSLPSSSERSSSSAPHLEIKEGIESDEEIRRVPEFGGEAVGKETSGRESGSATGQERTQATVGESQRKRGRTPAEKENKRLKRLLRNRVSAQQARERKKAYLSELENRVKDLENKNSELEERLSTLQNENQMLRHILKNTTGNKRGGGGGSNADASL
notes: ELONGATED HYPOCOTYL 5 (HY5) bZIP transcription factor, full length; not shown: His10, N-terminal, cleaved; Twin-Strep, N-terminal, cleaved
Kd [6]: ~1000 nM

B13: CRY1^544–552 VP peptide (peptide, UniProt Q43125 544-552, looked up)
peptide: EDQMVPSIT
notes: cryptochrome 1 (CRY1), Arabidopsis blue-light photoreceptor, residues 544-552 (holds Asp545); also called CRY1 VP peptide; CRY1 peptide; source: synthetic peptide (Peptide Specialty Labs GmbH)
stoichiometry N [2]: 0.98
stoichiometry N [3]: 0.99
